Results from the supplement of paper PMC9732359.
± gives the uncertainty stated by the source.

Experiment: protein stability index of a GFP-peptide fusion (yeast GPS) (PSI 1-4); higher = more stable; sorted into four equal gates, so the index is relative within each strain
Method in brief: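 Plasmids in a pooled yeast library fused tiled 17-residue yeast protein peptides downstream of GFP and also expressed Cherry. Mid-log cultures grown without leucine were sorted into four equal gates by GFP/Cherry fluorescence ratio. Each gate's plasmids were PCR-amplified and Illumina-sequenced, and reads were matched to strains by barcodes. The protein stability index is derived by multiplying each gate's read frequency by its gate number and summing the results.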

Sequence | protein stability index (doa10∆) | protein stability index (pdr5∆) | protein stability index (san1∆) | protein stability index (ubr1∆)
TLGNQMLSAHNIIESIA [YJR042W/NUP85] | 2.33 ± 0.097 | 2.58 ± 0.073 | 2.53 ± 0.14 | 2.79 ± 0.072
TLLSPKDNGMLIIDGQI [RPO21] | 2.59 ± 0.076 | 2.29 ± 0.078 | 2.81 ± 0.074 | 1.78 ± 0.058
TLNPDLFLYKELVKAHL [RPC82] | 2.71 ± 0.079 | 2.87 ± 0.074 | 2.95 ± 0.053 | 2.42 ± 0.055
TLPSVGHTLINNYKDLL [RPP0] | – | 3.34 ± 0.21 | – | –
TLRKELEQIQVQLKDAN [YIL149C/MLP2] | 2.51 ± 0.1 | 2.96 ± 0.093 | 2.67 ± 0.096 | 2.24 ± 0.051
TLSHLRRTNTPIGRDGK [RPB2] | 2.14 ± 0.043 | 2.26 ± 0.038 | 2.24 ± 0.057 | 2.08 ± 0.036
TLVEIFLERKCVHMVYE [SSN3] | 1.35 ± 0.063 | 1.7 ± 0.071 | 1.52 ± 0.11 | 1.75 ± 0.048
TLVSTDNYFNLQLNEAE [SMX3] | 2.94 ± 0.069 | 2.91 ± 0.059 | 2.82 ± 0.053 | 2.79 ± 0.048
TMGGNAELELVDSLDPF [SMC4] | 3.25 ± 0.1 | 3.17 ± 0.086 | 3.39 ± 0.074 | 3.15 ± 0.084
TMGMRALLKLSVKLKQK [DIS3] | 1.28 ± 0.059 | 1.59 ± 0.063 | 1.21 ± 0.072 | 1.33 ± 0.07
TMQPPYIQERLKSLNDI [MED11] | 2.89 ± 0.086 | 2.86 ± 0.12 | 3.13 ± 0.068 | 2.82 ± 0.056
TNFEILNEMLNTRKNMS [DIS3] | 2.97 ± 0.059 | 3.07 ± 0.091 | 3.06 ± 0.054 | 3.09 ± 0.041
TNFSPTPANNGENAAEK [SNF2] | 2.42 ± 0.067 | 2.77 ± 0.072 | 2.21 ± 0.074 | 2.81 ± 0.05
TNHSAAASTPTTTATPH [PGD1] | 2.91 ± 0.033 | 3.026 ± 0.029 | 2.99 ± 0.027 | 2.939 ± 0.023
TNILISPLNTTTKILGD [YML103C/NUP188] | 2.15 ± 0.058 | 2.42 ± 0.05 | 2.04 ± 0.086 | 1.51 ± 0.033
TNNVLRKLGLLGDKEDE [MTW1] | 2.27 ± 0.048 | 2.35 ± 0.054 | 1.85 ± 0.085 | 2.58 ± 0.049
TNPSSIFGGAGGVPTTS [YOR098C/NUP1] | 1.72 ± 0.066 | 2.36 ± 0.076 | 2.15 ± 0.086 | 1.59 ± 0.053
TNWIIYPLWVMAKQLIR [CSN12] | 1.39 ± 0.11 | 1.2 ± 0.13 | – | 1.24 ± 0.11
TPAELVGKFLGYVSSLV [FAS1] | 1.93 ± 0.064 | 2.04 ± 0.085 | 1.73 ± 0.081 | 2.06 ± 0.055
TPEYAAEKVKVRDELRK [UBP6] | 1.28 ± 0.068 | 1.61 ± 0.083 | 1.42 ± 0.14 | 1.46 ± 0.07
TPIIFIGTGEHIHDLEK [SRP54] | 1.94 ± 0.071 | 2.42 ± 0.063 | 2.76 ± 0.068 | 2.45 ± 0.056
TPLTENILIASLMDTLI [YCG1] | 1.86 ± 0.049 | 1.7 ± 0.04 | 2.07 ± 0.069 | 2.35 ± 0.035
TPNTNSNSTPNANQQFL [SWI1] | 3.11 ± 0.054 | 3.15 ± 0.047 | 2.93 ± 0.053 | 3.1 ± 0.035
TPPAIEHKPVSPDKIGT [SSN2] | 3.03 ± 0.072 | 3.35 ± 0.066 | 3.12 ± 0.076 | 3.17 ± 0.06
TPPDDLHPYVPSSKPQE [SRB8] | 2.71 ± 0.081 | 2.98 ± 0.073 | 2.93 ± 0.048 | 3.07 ± 0.049
TPYNADFDGDEMNLHVP [RPO31] | 2.83 ± 0.087 | 3.35 ± 0.085 | 3.07 ± 0.075 | 3.21 ± 0.062
TQARVITGNKIMRILKS [RPS13] | 1.41 ± 0.17 | 1.24 ± 0.081 | 1.18 ± 0.12 | 1.1 ± 0.079
